Data on one molecule can be found in patent US6492116, “Assay for identifying inhibitors of the interaction between proteins p53 and dm2” (Cancer Research Campain Technology Ltd.).

This data set deals with p53D30 (human p53 residues 1-362) (Homo sapiens, UniProt P04637 SEQ:1-362). Put plainly: EMSA; 50 mM Tris-HCl, 50 mM NaCl, 5% glycerol, 0.1% Triton X-100, 10 mM DTT, 50 ug/ml poly(dI-dC), pH 7.6, 22 C; monoclonal antibodies included as mentioned; gel result not shown in the text. To be noted: chain copies: 4; label: 33P 5' end; HindIII-compatible 5' overhangs. As to the method:
A 20 μl reaction volume containing 50 mM Tris. HCI, 50 mM NaCI, 5% (v/v) glycerol, 0.1% (v/v) Triton X-100, 10 mM DTT and 50 μg/ml polydeoxyinosinic-deoxycytidylic acid–pH=7.6 (binding buffer) are incubated for 30 min at 22° C. in the presence of the indicated amounts of p53D30, of radiolabelled oligonucleotides and of the mentioned monoclonal antibodies. Reactions are loaded onto a native 4% polyacrylamide gel containing 0.5×Tris.HCI–boric acid–pH=8.0 which had undergone pre-electrophoresis at 200 V for 45 min at 4 ° C. Electrophoresis is continued at 200 V from 90 to 120 min at 4° C. Gels are dried prior exposure to X-ray film (Amersham Hyperfilm-MP).
(Mobility shift assays separate free from complexed probe on a gel.)

Chain of p53D30 (human p53 residues 1-362) (P04637 1-362): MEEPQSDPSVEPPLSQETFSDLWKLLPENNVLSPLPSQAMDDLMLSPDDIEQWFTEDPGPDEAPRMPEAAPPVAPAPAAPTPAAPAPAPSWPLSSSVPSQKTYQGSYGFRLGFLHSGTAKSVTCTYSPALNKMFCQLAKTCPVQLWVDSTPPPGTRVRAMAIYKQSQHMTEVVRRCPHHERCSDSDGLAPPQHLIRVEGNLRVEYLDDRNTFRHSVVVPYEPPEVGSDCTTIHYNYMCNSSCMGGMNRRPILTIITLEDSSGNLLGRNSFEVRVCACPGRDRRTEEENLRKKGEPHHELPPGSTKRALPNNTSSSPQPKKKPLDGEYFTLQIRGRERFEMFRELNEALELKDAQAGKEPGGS

B1: p53 consensus site oligonucleotide I/II (dsDNA)
DNA 1: AGCTTAGACATGCCTAGACATGCCTA
DNA 2: AGCTTAGGCATGTCTAGGCATGTCTA
B1: the binding result is reported as “binds”.
